Test results: patent US20250051468A1 (INNOLAKE BIOPHARMA HANGZHOU, published 2025)
Where two headings read alike, the source gives them in different places.

T1: human OX40 expressed on cells (293T-OX40, Jurkat-OX40) (human, UniProt P43489 29-277)
T1 sequence (looked up): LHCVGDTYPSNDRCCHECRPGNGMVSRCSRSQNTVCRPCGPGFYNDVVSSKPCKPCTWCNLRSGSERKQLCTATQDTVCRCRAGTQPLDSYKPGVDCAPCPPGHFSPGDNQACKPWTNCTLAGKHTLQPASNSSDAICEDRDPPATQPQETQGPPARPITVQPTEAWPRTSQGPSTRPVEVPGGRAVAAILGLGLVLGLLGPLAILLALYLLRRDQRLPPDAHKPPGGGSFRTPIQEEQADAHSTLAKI

T2: OX40-ECD-hFc (human, UniProt P43489 29-214)
T2 construct: extracellular domain; Coated on the ELISA plate; also called OX40-hFc protein; not shown: human Fc (hFc)
T2 sequence (looked up): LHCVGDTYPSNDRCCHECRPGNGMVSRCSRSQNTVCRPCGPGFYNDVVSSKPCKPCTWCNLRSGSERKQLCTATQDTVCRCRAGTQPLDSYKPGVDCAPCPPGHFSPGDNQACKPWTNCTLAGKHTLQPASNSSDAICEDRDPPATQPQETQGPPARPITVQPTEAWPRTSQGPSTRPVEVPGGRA


Columns and labels:
[1] = biological target: T1, human OX40 expressed on cells …; experiment: cell-based or functional assay
[2] = biological target: T1, human OX40 expressed on cells …; experiment: FACS on 293T-OX40 cells
Method: (§1) (3) FACS Screening for Antibodies Binding to OX40-ECD. 50 μL of the hybridoma supernatant tested positive in the ELISA tests was pipetted and mixed with 50 μL of 293T-OX40 cells (1×10⁵ cells/well), and the mixture was added to a 96-well plate with a U-shaped bottom and incubated for 1 hour. After the mixture was centrifuged and washed twice with FACS buffer (PBS+3% FCS), PE-labeled goat anti-mouse secondary antibody (Biolegend, Cat. No.: 405307) diluted at 1:400 was added, the mixture was incubated for 30 minutes, and washed with FACS buffer, and then PE signal of 293T-OX40 cells was detected using a BD C6 flow cytometer.
(§2) The activity of the purified antibody sample to bind OX40 and block the binding of OX40 to OX40L was tested via ELISA and FACS. Specific methods are described in steps (2), (3) and (4) in Example 1. 6 monoclonal OX40 hybridoma antibodies 1G2, 3G4, 9G7, 177G5, 118A10 and 119H2 were tested. Test results are shown in Table 1 to Table 3 and FIGS. 1 to 3.

OX40-ECD-hFc = biological target: T2, OX40-ECD-hFc; experiment: ELISA, OX40-ECD-hFc coated on plate
Method: (2) ELISA Screening for Antibodies Binding to OX40-ECD. 96-well ELISA plate (Corning, Cat. No.: 9018) was inoculated with OX40-ECD-hFc, left at 4° C. overnight, and washed 3 times with wash buffer (PBS+0.05% Tween 20), then blocking buffer (PBS+1% BSA (Sigma, Cat. No.: V90093)) was added, and the 96-well ELISA plate was incubated for 1 hour and washed 3 times; hybridoma supernatant was added, the 96-well ELISA plate was incubated for 1 hour and washed 3 times; and 100 μL of goat anti-mouse IgG secondary antibody (Thermo, Cat. No.: 31432) diluted at 1:10000 was added to each well, and the 96-well ELISA plate was incubated at room temperature for 1 hour and washed 3 times. 100 µL of TMB (Biosubstrate Technologies, Cat. No.: ES-002) was added to each well and left for 3 minutes for color development, then a stop solution (2N H₂SO₄) was added at a dose of 100 μL/well to terminate the reaction, and the OD450 signal of each sample was measured with a Tecan Spark microplate reader.
as §2

[3] = biological target: T1, human OX40 expressed on cells …; experiment: cell-based or functional assay; remark: listed apart in the source
[4] = biological target: T1, human OX40 expressed on cells …; experiment: cell-based or functional assay; remark: listed apart in the source
[5] = biological target: T1, human OX40 expressed on cells …; experiment: FACS on 293T-OX40 cells; remark: listed apart in the source
Method: as §1
Purified humanized antibody samples were tested for their binding to OX40 using FACS and for their ability to block the OX40L/OX40 signaling pathway using a reporter gene assay. The specific methods are referenced from Example 1. The results are shown in Table 6, Table 7, FIG. 7 and FIG. 8. The effects of the humanized antibodies on the function of primary T cells were tested, including an MLR response test of the inhibitory effect of the OX40 humanized antibody on the proliferation of CD4+ T cells, and a test of the inhibitory effect of the OX40 humanized antibody on the proliferation of CD8+ T cells induced by CEF.

| Binder | IC50 of reporter gene assay (NF-kB-luciferase, Jurkat-OX40 cells + OX40L) [1] [µg/mL] | EC50 [2] [µg/mL] | EC50 (OX40-ECD-hFc) [µg/mL] | IC50 of reporter gene assay (NF-kB-luciferase, Jurkat-OX40 cells + OX40L) [3] [µg/mL] | EC50 of ADCC activity (LDH release, Jurkat-OX40 target cells + PBMC) [4] [µg/mL] | EC50 [5] [µg/mL] |
| --- | --- | --- | --- | --- | --- | --- |
| murine OX40 hybridoma antibody 1G2 (antibody, V domains shown, Purified murine monoclonal hybridoma antibody) VH: EVQLQQSGPDLVKPGASVKMSCKASGYRFTSYVMHWVKQRPGQGLEWIGYINPYNDNTRYNEKFKGKATLTSDKSSSTAYMELSSLTSEDSAVYYCAAYYGDYVYLDYWGQGTTLTVSS VL: DIQMTQTTSSLSASLGDRVTISCRASQDINNYLNWYQQKPDGTVKLLIYYTSRLHSGVPSRFSGSGSGTDYSLIISNLEQEDIATYFCQQGNTLPWTFGGGTKLEIKR | 0.117 | 0.0805 | 0.0157 | – | – | – |
| humanized anti-OX40 antibody hu3G4-DE (antibody, V domains shown, Constructed as human IgG1 with constant region Ser239, Ala330 and Ile332 mutated to Asp, Leu and Glu; also called humanized antibody 3G4; combination B') VH: QVQLVQSGAEVKKPGASVKVSCKASGYRFTSYVLHWVRQAPGQRLEWIGYVNPFNDNTRYNEKFKARATLTSDKSASTAYMELSSLRSEDTAVYYCSRGLYDYSYVMDYWGQGTLVTVSS VL: DIQMTQSPSSLSASVGDRVTITCQASQDIRNYLNWYQQKPGKAPKLLIYHTSKLHSGVPSRFSGSGSGTDFTFTISSLQPEDIATYYCQQSNTLPYTFGQGTKLEIK | – | – | – | 0.0181 | 0.00152 | 0.0713 |
| murine OX40 hybridoma antibody 118A10 (antibody, V domains shown, Purified murine monoclonal hybridoma antibody) VH: EVKLDETGGGLVQPGRPMKLSCVASGFTFSDYWLNWVRQSPEKGLEWVAQIRNKPYHYETFYSESVKGRFTISRDDSKSSVYLQMNDLRGEDTGIYYCTGYFDYWGQGTTLTVSS VL: DIVLTQSPASLTISLGQRATISCRASQSVSTSTYSYIHWYQQKPGQPPRLLIKYASNLESGVPARFSGSGSGTDFTLNIHPVEEEDTATYYCQHSWGIPPTFGGGTKLEIKR | 0.198 | 0.0735 | 0.0249 | – | – | – |
| humanized anti-OX40 antibody hu9G7-DE (antibody, V domains shown, Constructed as human IgG1 with constant region Ser239, Ala330 and Ile332 mutated to Asp, Leu and Glu; also called humanized antibody 9G7; combination C') VH: EVQLVESGGGLVQPGGSLRLSCAASGFTFSDYYMYWVRQAPGKGLEWVAYISNGDISTYYPDTVKGRFTISRDNAKNSLYLQMNSLRAEDTAVYYCARDDGYSAWFAYWGQGTTVTVSS VL: DIVMTQSPDSLAVSLGERATINCKSSQSLLNSSNQKNYLAWYQQKPGQPPKLLVYFASTRESGVPDRFSGSGSGTDFTLTISSLQAEDVAVYYCQQHYYTPFTFGQGTKLEIK | – | – | – | 0.0575 | 0.00143 | 0.0623 |
| humanized anti-OX40 antibody hu177G5-DE (antibody, V domains shown, Constructed as human IgG1 with constant region Ser239, Ala330 and Ile332 mutated to Asp, Leu and Glu; also called humanized antibody 177G5; combination D') VH: QVQLVESGGGLVKPGGSLRLSCAASGFTFSDFYMYWIRQAPGKGLEWVATISDGGSYTYYPDIVKGRFTISRDNAKNSLNLQMNSLRAEDTAVYYCTTKNGNHIGFAYWGQGTTVTVSS VL: DIQMTQSPSSLSASVGDRVTITCRASENIYSNLAWYQQKPGKAPKLLVYAATNLADGVPSRFSGSGSGTDYTLTISSLQPEDFATYYCQHFWGIPWTFGGGTKVEIK | – | – | – | 0.309 | 0.00236 | 0.096 |

Second part, the binder after the results:

| IC50 of reporter gene assay (NF-kB-luciferase, Jurkat-OX40 cells + OX40L) [1] [µg/mL] | EC50 [2] [µg/mL] | EC50 (OX40-ECD-hFc) [µg/mL] | IC50 of reporter gene assay (NF-kB-luciferase, Jurkat-OX40 cells + OX40L) [3] [µg/mL] | EC50 of ADCC activity (LDH release, Jurkat-OX40 target cells + PBMC) [4] [µg/mL] | EC50 [5] [µg/mL] | Binder |
| --- | --- | --- | --- | --- | --- | --- |
| ~0.0361 | 0.0369 | 0.0198 | – | – | – | murine OX40 hybridoma antibody 9G7 (antibody, V domains shown, Purified murine monoclonal hybridoma antibody) VH: EVKLVESGGGLVQPGGSLKLSCAASGFTFSDYYMYWVRQTPEKRLEWVAYISNGDISTYYPDTVKGRFTISRDNAKNTLYLQMSRLKSEDTAMYYCARDDGYSAWFAYWGQGTLVTVSA VL: not shown |
| 0.253 | 0.0499 | 0.0215 | – | – | – | murine OX40 hybridoma antibody 177G5 (antibody, V domains shown, Purified murine monoclonal hybridoma antibody) VH: EVQLVESGGGLVKPGGSLKLSCAASGFTFSDFYMYWVRQTPEKRLEWVATISDGGSYTYYPDIVKGRFTISRDNAKNNLNLQMSSLKSDDTAMYYCTTKNGNHIGFAYWGQGTLVTVSA VL: DIQMTQSPASLSVSVGETVTITCRASENIYSNLAWYQQKQGKSPQLLVYAATNLADGVPSRFSGSGSGTQYSLKINSLQSEDFGSYYCQHFWGIPWTFGGGTKLEIKR |
| 0.179 | 0.0413 | 0.023 | – | – | – | murine OX40 hybridoma antibody 119H2 (antibody, V domains shown, Purified murine monoclonal hybridoma antibody) VH: EVKLDATGGGLVQPGRPMKLSCVASGFTFSDYWMNWVRQSPEKGLEWVAQIRNKPYNYETFYSDSVKGRFTISRDDSKSSVYLQMNNLRAEDMGIYYCTGYFDYWGQGTTLTVSS VL: DIVLTQSPASLAVSLGQRATISCRASQSVSTSSYSYMHWYQQKPGQPPKLLIKYASNLESGVPARFSGSGSGTDFTLNIHPVEEEDTATYYCQHSWGIPPTFGGGTKLEIKR |
| 0.0361 | 0.0537 | 0.0163 | – | – | – | murine OX40 hybridoma antibody 3G4 (antibody, V domains shown, Purified murine monoclonal hybridoma antibody) VH: EVQLQQSGPELVKPGTSVKMSCKASGYRFTSYVLHWVRRKPGQGLEWIGYVNPFNDNTRYNEKFKAKATLTSDKSSSTAYMDLVSLTSEDSAVYYCSRGLYDYSYVMDYWGQGTSVTVSS VL: DIQMTQTTSSLSASLGDGVTITCQASQDIRNYLNWYQQKPDGTIKLLIYHTSKLHSGVPSRFSGGGSGTDFSLTISNLDQEDIATYFCQQSQTLPYTFGGGTKLEIKR |
